From patent US20220349880

Tests used:
[1] = test system: Peptide H-7: H2N-(CH2)4-CO-Pro-Leu-Gly-Gly-Val-Ala-NHCH2-Fc
[2] = test system: Peptide H-4: H2N-(CH2)4-CO-Pro-Val-Gly-Phe-Val-Ala-NHCH2-Fc
[3] = test system: Peptide H-1: H2N-(CH2)4-CO-Lys-Val-Arg-Phe-Val-Gly-NHCH2-Fc
[4] = test system: Peptide H-5: H2N-(CH2)4-CO-Ala-Pro-Leu-Arg-Phe-Gly-Ala-Ala-NHCH2-Fc
[5] = test system: Peptide H-16: H2N-(CH2)4-CO-Pro-Leu-Ala-Gly-Val-Ala-NH-CH2-Fc
[6] = test system: Peptide H-15: H2N-(CH2)4-CO-Pro-Leu-Ala-Phe-Val-Ala-NH-CH2-Fc
[7] = test system: Peptide H-2: H2N-(CH2)4-CO-Pro-Thr-Arg-Phe-Val-Gly-NHCH2-Fc
[8] = test system: Peptide H-6: H2N-(CH2)4-CO-Pro-Leu-Gly-Phe-Val-Ala-NHCH2-Fc
[9] = test system: Peptide H-3: H2N-(CH2)4-CO-Pro-Leu-Arg-Phe-Gly-Ala-NH-CH2-Fc

recombinant human cathepsin B (rhCB), activated by incubation in 25 mM MES buffer (pH 5.0) containing 5 mM DTT for 15 min
proteolysis rate (electrochemical measurements, fluorogenic assays and HPLC-MS analysis); one of the 'other candidates' with a lower rate [1]: three peptides H-3, H-15 and H-16 were selected for this study due to the higher proteolysis rates by cathepsin B compared to other candidates | proteolysis rate (electrochemical measurements, fluorogenic assays and HPLC-MS analysis); one of the 'other candidates' with a lower rate [2]: three peptides H-3, H-15 and H-16 were selected for this study due to the higher proteolysis rates by cathepsin B compared to other candidates | proteolysis rate (electrochemical measurements, fluorogenic assays and HPLC-MS analysis); one of the 'other candidates' with a lower rate [3]: three peptides H-3, H-15 and H-16 were selected for this study due to the higher proteolysis rates by cathepsin B compared to other candidates | proteolysis rate (electrochemical measurements, fluorogenic assays and HPLC-MS analysis); one of the 'other candidates' with a lower rate [4]: three peptides H-3, H-15 and H-16 were selected for this study due to the higher proteolysis rates by cathepsin B compared to other candidates | proteolysis rate (electrochemical measurements, fluorogenic assays and HPLC-MS analysis) [5]: three peptides H-3, H-15 and H-16 were selected for this study due to the higher proteolysis rates by cathepsin B compared to other candidates | proteolysis rate (electrochemical measurements, fluorogenic assays and HPLC-MS analysis) [6]: three peptides H-3, H-15 and H-16 were selected for this study due to the higher proteolysis rates by cathepsin B compared to other candidates | proteolytic activity among about 30 synthesized peptides [6]: has shown the highest proteolytic activity by cathepsin B | proteolysis rate (electrochemical measurements, fluorogenic assays and HPLC-MS analysis); one of the 'other candidates' with a lower rate [7]: three peptides H-3, H-15 and H-16 were selected for this study due to the higher proteolysis rates by cathepsin B compared to other candidates | proteolysis rate (electrochemical measurements, fluorogenic assays and HPLC-MS analysis); one of the 'other candidates' with a lower rate [8]: three peptides H-3, H-15 and H-16 were selected for this study due to the higher proteolysis rates by cathepsin B compared to other candidates | proteolysis rate (electrochemical measurements, fluorogenic assays and HPLC-MS analysis) [9]: three peptides H-3, H-15 and H-16 were selected for this study due to the higher proteolysis rates by cathepsin B compared to other candidates
